Our source for the Km values is ChEMBL document CHEMBL1135258, “Substrate spectrum of tyrocidine thioesterase probed with randomized peptide N-acetylcysteamine thioesters” (Bioorg Med Chem Lett, 2002).

Common to all, as to conditions: Brevibacillus brevis
Substrate in series [1]: CC(=O)NCCSC(=O)[C@H](CC(C)C)NC(=O)[C@H](CCCN)NC(=O)[C@@H](NC(=O)[C@H](Cc1ccc(O)cc1)NC(=O)[C@H](CCC(N)=O)NC(=O)[C@H](CC(N)=O)NC(=O)[C@H](Cc1ccccc1)NC(=O)[C@H](Cc1ccccc1)NC(=O)[C@@H]1CCCN1C(=O)[C@H](N)Cc1ccccc1)C(C)C
In words: (§1) Apparent kinetic constant (Km) determined for tyrocidine thioesterase amplified from Bacillus brevis (ATCC8185).

Substrate in series [2]: CC(=O)NCCSC(=O)[C@H](CC(C)C)NC(=O)[C@H](CCCN)NC(=O)[C@@H](NC(=O)[C@H](CC(N)=O)NC(=O)[C@H](CCC(N)=O)NC(=O)[C@H](CC(N)=O)NC(=O)[C@@H](Cc1ccccc1)NC(=O)[C@H](Cc1ccccc1)NC(=O)[C@@H]1CCCN1C(=O)[C@H](N)Cc1ccccc1)C(C)C
The description is as §1.

Substrate in series [3]: CSCC[C@H](NC(=O)[C@H](Cc1ccccc1)NC(=O)[C@@H]1CCCN1C(=O)[C@H](N)Cc1ccccc1)C(=O)N[C@@H](CC(N)=O)C(=O)N[C@@H](CCC(N)=O)C(=O)N[C@@H](Cc1ccc(O)cc1)C(=O)N[C@H](C(=O)N[C@@H](CCCN)C(=O)N[C@@H](CC(C)C)C(=O)SCCNC(C)=O)C(C)C
The series is described as §1.

Substrate in series [4]: CC[C@@H](C)[C@H](NC(=O)[C@H](CC(N)=O)NC(=O)[C@@H](Cc1ccccc1)NC(=O)[C@H](Cc1ccccc1)NC(=O)[C@@H]1CCCN1C(=O)[C@H](N)Cc1ccccc1)C(=O)N[C@@H](Cc1ccc(O)cc1)C(=O)N[C@H](C(=O)N[C@@H](CCCN)C(=O)N[C@@H](CC(C)C)C(=O)SCCNC(C)=O)C(C)C
The description is as §1.

Substrate in series [5]: CC(=O)NCCSC(=O)[C@H](CC(C)C)NC(=O)[C@H](CCCN)NC(=O)[C@@H](NC(=O)[C@H](Cc1ccc(O)cc1)NC(=O)[C@H](CCC(N)=O)NC(=O)[C@H](CC(N)=O)NC(=O)[C@H](CC(=O)O)NC(=O)[C@H](Cc1ccccc1)NC(=O)[C@@H]1CCCN1C(=O)[C@H](N)Cc1ccccc1)C(C)C
The description is as §1.

Substrate in series [6]: CC(=O)NCCSC(=O)[C@H](CC(C)C)NC(=O)[C@H](CCCN)NC(=O)[C@@H](NC(=O)[C@H](Cc1ccc(O)cc1)NC(=O)[C@H](CC(N)=O)NC(=O)[C@H](CC(N)=O)NC(=O)[C@@H](Cc1ccccc1)NC(=O)[C@H](Cc1ccccc1)NC(=O)[C@@H]1CCCN1C(=O)[C@H](N)Cc1ccccc1)C(C)C
The series is described as §1.

Substrate in series [7]: CC(=O)NCCSC(=O)[C@H](CC(C)C)NC(=O)[C@H](CCCN)NC(=O)[C@@H](NC(=O)[C@H](Cc1ccc(O)cc1)NC(=O)[C@H](CCC(N)=O)NC(=O)[C@H](CC(C)C)NC(=O)[C@@H](Cc1ccccc1)NC(=O)[C@H](Cc1ccccc1)NC(=O)[C@@H]1CCCN1C(=O)[C@H](N)Cc1ccccc1)C(C)C
The description is as §1.

Substrate in series [8]: CC[C@H](C)[C@H](NC(=O)[C@H](Cc1ccccc1)NC(=O)[C@@H]1CCCN1C(=O)[C@H](N)Cc1ccccc1)C(=O)N[C@@H](CC(N)=O)C(=O)N[C@@H](CCC(N)=O)C(=O)N[C@@H](Cc1ccc(O)cc1)C(=O)N[C@H](C(=O)N[C@@H](CCCN)C(=O)N[C@@H](CC(C)C)C(=O)SCCNC(C)=O)C(C)C
Described as §1.

Substrate in series [9]: CC(=O)NCCSC(=O)[C@H](CC(C)C)NC(=O)[C@H](CCCN)NC(=O)[C@@H](NC(=O)[C@H](Cc1ccc(O)cc1)NC(=O)[C@H](CCC(N)=O)NC(=O)[C@H](CC(N)=O)NC(=O)[C@H](CS)NC(=O)[C@H](Cc1ccccc1)NC(=O)[C@@H]1CCCN1C(=O)[C@H](N)Cc1ccccc1)C(C)C
The description is as §1.

Substrate in series [10]: CC(=O)NCCSC(=O)[C@H](CC(C)C)NC(=O)[C@H](CCCN)NC(=O)[C@@H](NC(=O)[C@H](Cc1ccc(O)cc1)NC(=O)[C@H](CCC(N)=O)NC(=O)[C@H](CC(N)=O)NC(=O)[C@H](CCCCN)NC(=O)[C@H](Cc1ccccc1)NC(=O)[C@@H]1CCCN1C(=O)[C@H](N)Cc1ccccc1)C(C)C
The series is described as §1.

Substrate in series [11]: CC(=O)NCCSC(=O)[C@H](CC(C)C)NC(=O)[C@H](CCCN)NC(=O)[C@@H](NC(=O)[C@H](Cc1ccc(O)cc1)NC(=O)[C@H](CCC(N)=O)NC(=O)[C@H](CC(N)=O)NC(=O)[C@@H](Cc1ccccc1)NC(=O)[C@H](Cc1ccccc1)NC(=O)[C@H](CC(=O)O)NC(=O)[C@H](N)Cc1ccccc1)C(C)C
The series is described as §1.

Substrate in series [12]: CC(=O)NCCSC(=O)[C@H](CC(C)C)NC(=O)[C@H](CCCN)NC(=O)[C@@H](NC(=O)[C@H](Cc1ccc(O)cc1)NC(=O)[C@H](CCC(N)=O)NC(=O)[C@H](CC(N)=O)NC(=O)[C@@H](NC(=O)[C@H](Cc1ccccc1)NC(=O)[C@@H]1CCCN1C(=O)[C@H](N)Cc1ccccc1)[C@@H](C)O)C(C)C
The description is as §1.

Substrate in series [13]: CC(=O)NCCSC(=O)[C@H](CC(C)C)NC(=O)[C@H](CCCN)NC(=O)[C@@H](NC(=O)[C@H](Cc1ccc(O)cc1)NC(=O)[C@H](CCC(N)=O)NC(=O)[C@H](CC(N)=O)NC(=O)[C@@H](NC(=O)[C@H](Cc1ccccc1)NC(=O)[C@@H]1CCCN1C(=O)[C@H](N)Cc1ccccc1)C(C)C)C(C)C
Described as §1.

Substrate in series [14]: CC(=O)NCCSC(=O)[C@H](CC(C)C)NC(=O)[C@H](CCCN)NC(=O)[C@@H](NC(=O)[C@H](Cc1ccc(O)cc1)NC(=O)[C@H](CCC(N)=O)NC(=O)[C@H](CC(N)=O)NC(=O)[C@H](CCC(N)=O)NC(=O)[C@H](Cc1ccccc1)NC(=O)[C@@H]1CCCN1C(=O)[C@H](N)Cc1ccccc1)C(C)C
The series is described as §1.

Substrate in series [15]: CC(=O)NCCSC(=O)[C@H](CC(C)C)NC(=O)[C@H](CCCN)NC(=O)[C@@H](NC(=O)[C@H](Cc1ccc(O)cc1)NC(=O)[C@H](CCC(N)=O)NC(=O)[C@H](CC(N)=O)NC(=O)[C@H](Cc1c[nH]c2ccccc12)NC(=O)[C@H](Cc1ccccc1)NC(=O)[C@@H]1CCCN1C(=O)[C@H](N)Cc1ccccc1)C(C)C
The series is described as §1.

B1: Thioesterase GrsT homolog tycF (Brevibacillus brevis), O30412 (protein)
chain: MKLFCFPYAGGLPGIYYSWKSRLPPTFLEIDAFEVRPHIPQPNRDVFLPTSFYELLEDVCDRITPALTETPFAFFGHSMGGLVAFELTRKLMQKGAPLPQHLFLSASRAPHAYGKLAKTYNLPHDEFVEALRKLGGTPDDVLENQELLELFLPILRADFQAVQTYEMNPDLPRQVPVNMTVLYGTEDTIALEDIWAWRDYCQGACQFFPVSGGHFFIHHQTSPILEIIQNVLKEEKTVAIHSSF
In the case of B1, the Michaelis-Menten constant (Km) in series [1] was determined as 4.8 µM; in series [2] it was 7.6 µM; in [3], 20 µM; in [4], 82 µM; in [5] it was 238 µM; in [6], 112 µM. Moreover, the Km was 42 µM in series [7]; 32 µM in series [8]; 27 µM in series [9]; 15 µM in [10]; 96 µM in series [11]; 31 µM in series [12]. In addition, the figures for the Km in [13], in series [14] and in series [15] were 145 µM, 16 µM and 7.5 µM, respectively.

By Km is commonly meant the concentration of substrate that gives half-maximal velocity.
